# Starred links: 1 amine or outer side, 2 acyl side, 3 side chain; linkers in the order of their positions; H or OH if unused. Positions of bridges follow the written chain, without caps; N, C: chain ends. Non-standard residues stand in square brackets, D forms with d. Primed or numbered codes have the meaning given here. PyrS2″ = (S)-3-amino-1-((pent-4-en-1-yloxy)carbonyl)pyrrolidine-3-carboxylic acid (stapling residue), C=CCCCOC(=O)N1CC[C@@](N[*:1])(C(=O)[*:2])C1; B5(18) = 2,2-bis(4-pentenyl)glycine (2-amino-2-(pent-4-en-1-yl)hept-6-enoic acid), stitching residue, C=CCCCC(CCCC=C)(N[*:1])C(=O)[*:2]; B5(4) = 2,2-bis(4-pentenyl)glycine = 2-amino-2-(pent-4-en-1-yl)hept-6-enoic acid (stitching residue), C=CCCCC(CCCC=C)(N[*:1])C(=O)[*:2]; (Me2NPrPip)GlnR″ = Glu side chain amide with 4-(3-(dimethylamino)propyl)piperazine, CN(C)CCCN1CCN(C(=O)CC[C@H](N[*:1])C(=O)[*:2])CC1; TfeGA = (S)-2-amino-3-((carboxymethyl)(2,2,2-trifluoroethyl)amino)propanoic acid, O=C([C@H](CN(CC(=O)[*:3])CC(F)(F)F)N[*:1])[*:2]; (EtSO2Ppz)GlnR = Glu side chain amide with 4-(ethylsulfonyl)piperazine, CCS(=O)(=O)N1CCN(C(=O)CC[C@H](N[*:1])C(=O)[*:2])CC1; (bismethoxyethylamine)GlnR″ = N5,N5-bis(2-methoxyethyl)-L-glutamine, COCCN(CCOC)C(=O)CC[C@H](N[*:1])C(=O)[*:2]; B5(3) = 2,2-bis(4-pentenyl)glycine (stitching residue), C=CCCCC(CCCC=C)(N[*:1])C(=O)[*:2]; Phe(3-COOH) = N[C@@H](Cc1cccc(C(=O)O)c1)C(=O)O; 2F3MeF = Cc1cccc(C[C@H](N[*:1])C(=O)[*:2])c1F; Phe(2-Cl) = N[C@@H](Cc1ccccc1Cl)C(=O)O; Bta = N[C@@H](Cc1csc2ccccc12)C(=O)O; αAllylPro = C=CC[C@@]1(C(=O)O)CCCN1; tBuAla = CC(C)(C)C[C@H](N)C(=O)O; 3Thi = N[C@@H](Cc1ccsc1)C(=O)O; S8 = C=CCCCCCC[C@](C)(N)C(=O)O; hSer = N[C@@H](CCO)C(=O)O
# Molecular target: T1, beta-catenin in DLD1 TCF/LEF luciferase reporter cells (UniProt P35222 1-781)
# T1 sequence (looked up): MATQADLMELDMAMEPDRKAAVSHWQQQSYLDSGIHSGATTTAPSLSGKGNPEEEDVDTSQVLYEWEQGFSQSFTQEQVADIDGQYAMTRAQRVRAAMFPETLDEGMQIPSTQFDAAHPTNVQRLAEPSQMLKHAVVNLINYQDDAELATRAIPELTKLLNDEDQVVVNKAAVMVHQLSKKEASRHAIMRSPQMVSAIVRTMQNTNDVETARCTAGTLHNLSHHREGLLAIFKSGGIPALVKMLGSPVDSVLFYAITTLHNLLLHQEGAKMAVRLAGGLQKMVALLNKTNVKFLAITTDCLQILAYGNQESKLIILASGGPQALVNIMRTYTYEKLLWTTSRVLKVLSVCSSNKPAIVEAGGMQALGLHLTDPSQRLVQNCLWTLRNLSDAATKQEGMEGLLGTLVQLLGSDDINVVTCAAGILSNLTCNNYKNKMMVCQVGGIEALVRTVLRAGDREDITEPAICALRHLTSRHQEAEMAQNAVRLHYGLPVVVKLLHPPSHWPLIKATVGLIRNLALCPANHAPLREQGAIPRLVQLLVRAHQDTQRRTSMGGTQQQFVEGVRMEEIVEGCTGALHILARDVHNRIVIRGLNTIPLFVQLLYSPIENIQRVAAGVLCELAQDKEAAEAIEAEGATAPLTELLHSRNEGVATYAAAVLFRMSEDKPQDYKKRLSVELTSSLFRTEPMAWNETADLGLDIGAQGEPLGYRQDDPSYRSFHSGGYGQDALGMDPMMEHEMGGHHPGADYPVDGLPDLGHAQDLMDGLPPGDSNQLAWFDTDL
# Assay: cell-based or functional assay
row,Binder,DLD1 reporter assay Abs IC50 [µM]
1,"Ac-[αAllylPro]D[tBuAla][B5(18)]D[TfeGA]FAFN[PyrS2″][Phe(2-Cl)][Bta]Q-NH2 (staple 1-4, 4-11) [I-1008]",13
2,"Ac-[αAllylPro]D[tBuAla][B5(18)]DDAAFT[PyrS2″][Phe(2-Cl)][Bta]S-NH2 (staple 1-4, 4-11) [I-1015]",9
3,"Ac-[αAllylPro]D[tBuAla][B5(3)]D[TfeGA]AAF[hSer][S8][Phe(2-Cl)][Bta][hSer]-NH2 (staple 1-4, 4-11) [I-1000]",8
4,"Ac-[αAllylPro]D[tBuAla][B5(3)][3Thi][TfeGA]AAFN[PyrS2″]D[Bta]Q-NH2 (staple 1-4, 4-11) [I-1001]",> 20
5,"Ac-[αAllylPro]D[tBuAla][B5(18)]D[TfeGA]ALFN[PyrS2″][Phe(2-Cl)][Bta]Q-NH2 (staple 1-4, 4-11) [I-1002]",> 20
6,"Ac-[αAllylPro]D[tBuAla][B5(18)]DDAAFS[PyrS2″][Phe(2-Cl)][Bta]Q-NH2 (staple 1-4, 4-11) [I-1017]",> 20
7,"Ac-[αAllylPro]D[tBuAla][B5(18)]DNAAFT[PyrS2″][Phe(2-Cl)][Bta]S-NH2 (staple 1-4, 4-11) [I-1016]",21.4
8,"Ac-[αAllylPro]D[tBuAla][B5(18)]D[TfeGA]KAFN[PyrS2″][Phe(2-Cl)][Bta]Q-NH2 (staple 1-4, 4-11) [I-1011]",> 20
9,"Ac-[αAllylPro]D[tBuAla][B5(18)]D[TfeGA]ASFN[PyrS2″][Phe(2-Cl)][Bta]Q-NH2 (staple 1-4, 4-11) [I-1004]",> 20
10,"Ac-[αAllylPro]D[tBuAla][B5(18)]D[TfeGA]LAFN[PyrS2″][Phe(2-Cl)][Bta]Q-NH2 (staple 1-4, 4-11) [I-1007]",3.3
11,"Ac-[αAllylPro]D[tBuAla][B5(18)]DDAAFS[PyrS2″][Phe(2-Cl)][Bta]S-NH2 (staple 1-4, 4-11) [I-1019]",8.3
12,"Ac-[αAllylPro]D[tBuAla][B5(3)]D[TfeGA]AAFS[S8][Phe(2-Cl)][Bta][hSer]-NH2 (staple 1-4, 4-11; also: later eluting isomer) [I-999]",11.1

# Molecular target: T2, Bcat-Halo (UniProt P35222 1-781)
# T2 sequence (looked up): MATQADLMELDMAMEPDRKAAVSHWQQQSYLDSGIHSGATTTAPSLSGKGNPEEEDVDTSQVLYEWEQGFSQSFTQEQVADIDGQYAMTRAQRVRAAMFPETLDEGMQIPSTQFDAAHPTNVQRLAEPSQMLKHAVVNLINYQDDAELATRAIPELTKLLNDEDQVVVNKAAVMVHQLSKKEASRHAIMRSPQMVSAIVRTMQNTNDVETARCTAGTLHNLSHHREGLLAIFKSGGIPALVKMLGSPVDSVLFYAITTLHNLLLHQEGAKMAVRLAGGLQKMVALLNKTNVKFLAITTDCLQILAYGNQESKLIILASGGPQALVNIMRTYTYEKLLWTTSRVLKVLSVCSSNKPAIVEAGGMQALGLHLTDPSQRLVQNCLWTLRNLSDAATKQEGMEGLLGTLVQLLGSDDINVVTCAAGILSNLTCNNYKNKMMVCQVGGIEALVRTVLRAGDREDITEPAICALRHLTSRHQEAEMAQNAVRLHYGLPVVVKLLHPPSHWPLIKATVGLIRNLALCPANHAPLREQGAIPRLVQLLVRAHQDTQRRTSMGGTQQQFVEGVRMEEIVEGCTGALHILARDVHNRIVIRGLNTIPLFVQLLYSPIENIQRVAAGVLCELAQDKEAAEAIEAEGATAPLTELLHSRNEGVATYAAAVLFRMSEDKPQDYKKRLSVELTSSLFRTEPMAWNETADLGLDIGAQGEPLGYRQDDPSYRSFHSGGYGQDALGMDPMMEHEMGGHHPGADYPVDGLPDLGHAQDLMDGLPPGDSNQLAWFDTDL
# Assay: cell-based or functional assay
row,Binder,NanoBRET Abs IC50 [µM]
1,"Ac-[αAllylPro]D[tBuAla][B5(4)]D[Phe(3-COOH)][(Me2NPrPip)GlnR″]AFL[PyrS2″][2F3MeF][Bta]A-NH2 (staple 1-4, 4-11) [I-2323]",17.7
2,"Ac-[αAllylPro]D[tBuAla][B5(4)]D[Phe(3-COOH)][(bismethoxyethylamine)GlnR″]AFL[PyrS2″][2F3MeF][Bta]A-NH2 (staple 1-4, 4-11) [I-2322]",1.8
3,"Ac-[αAllylPro]D[tBuAla][B5(3)]N[Phe(3-COOH)]AAFN[PyrS2″][3Thi][Bta]Q-NH2 (staple 1-4, 4-11) [I-2335]",37
4,"Ac-[αAllylPro]D[tBuAla][B5(4)]D[Phe(3-COOH)][(EtSO2Ppz)GlnR]AFL[PyrS2″][2F3MeF][Bta]A-NH2 (staple 1-4, 4-11) [I-2321]",1.7
